From patent publication US20170349667A1

Molecular target: human c-Met on cells (MKN-45, A549, HPAF, BxPC3) (human) (UniProt P08581)
Assay: cell-based or functional assay

human c-Met on cells (MKN-45, A549, HPAF, BxPC3) (human), sequence (P08581 25-1390): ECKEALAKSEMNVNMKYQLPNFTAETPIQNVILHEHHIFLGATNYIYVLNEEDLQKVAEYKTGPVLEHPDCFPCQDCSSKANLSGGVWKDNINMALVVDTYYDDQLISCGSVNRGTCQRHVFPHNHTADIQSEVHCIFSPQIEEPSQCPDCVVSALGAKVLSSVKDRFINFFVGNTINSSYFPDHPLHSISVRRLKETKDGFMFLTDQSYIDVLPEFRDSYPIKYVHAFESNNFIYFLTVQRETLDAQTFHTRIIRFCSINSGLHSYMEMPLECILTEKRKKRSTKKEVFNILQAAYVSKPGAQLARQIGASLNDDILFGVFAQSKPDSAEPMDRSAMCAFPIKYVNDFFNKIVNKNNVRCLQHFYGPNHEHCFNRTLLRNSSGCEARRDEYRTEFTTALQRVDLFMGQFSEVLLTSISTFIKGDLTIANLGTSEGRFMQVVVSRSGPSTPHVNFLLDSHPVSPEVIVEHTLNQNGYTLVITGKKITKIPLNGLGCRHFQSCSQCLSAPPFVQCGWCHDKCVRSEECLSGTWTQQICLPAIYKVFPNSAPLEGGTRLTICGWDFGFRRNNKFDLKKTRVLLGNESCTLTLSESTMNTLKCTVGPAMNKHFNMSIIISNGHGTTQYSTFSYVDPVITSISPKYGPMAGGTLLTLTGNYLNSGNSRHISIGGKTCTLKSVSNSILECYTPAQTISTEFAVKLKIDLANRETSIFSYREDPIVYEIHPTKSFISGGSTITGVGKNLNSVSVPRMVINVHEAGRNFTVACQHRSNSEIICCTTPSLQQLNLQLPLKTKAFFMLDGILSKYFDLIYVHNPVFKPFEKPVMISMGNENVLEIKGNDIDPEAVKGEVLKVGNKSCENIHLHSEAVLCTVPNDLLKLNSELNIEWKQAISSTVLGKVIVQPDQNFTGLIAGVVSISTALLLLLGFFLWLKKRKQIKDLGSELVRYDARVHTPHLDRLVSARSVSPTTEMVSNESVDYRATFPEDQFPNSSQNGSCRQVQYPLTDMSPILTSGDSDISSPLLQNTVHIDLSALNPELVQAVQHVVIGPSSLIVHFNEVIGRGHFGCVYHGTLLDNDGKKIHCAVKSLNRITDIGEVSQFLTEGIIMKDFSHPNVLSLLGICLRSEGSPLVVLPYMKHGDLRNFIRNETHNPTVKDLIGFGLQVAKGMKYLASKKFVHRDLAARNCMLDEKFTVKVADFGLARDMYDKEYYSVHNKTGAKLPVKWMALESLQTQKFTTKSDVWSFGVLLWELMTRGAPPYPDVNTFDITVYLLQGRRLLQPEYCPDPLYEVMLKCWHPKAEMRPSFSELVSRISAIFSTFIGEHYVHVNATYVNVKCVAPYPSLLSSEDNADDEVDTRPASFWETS

## murine 5D5 antibody
  down-regulation of total c-Met on the surface of MKN-45 cells: 50 to 60%
